Biological target: BACE1-GFP (UniProt P56817)
Experiment: co-IP

UniProt P56817, sequence (P56817 46-501): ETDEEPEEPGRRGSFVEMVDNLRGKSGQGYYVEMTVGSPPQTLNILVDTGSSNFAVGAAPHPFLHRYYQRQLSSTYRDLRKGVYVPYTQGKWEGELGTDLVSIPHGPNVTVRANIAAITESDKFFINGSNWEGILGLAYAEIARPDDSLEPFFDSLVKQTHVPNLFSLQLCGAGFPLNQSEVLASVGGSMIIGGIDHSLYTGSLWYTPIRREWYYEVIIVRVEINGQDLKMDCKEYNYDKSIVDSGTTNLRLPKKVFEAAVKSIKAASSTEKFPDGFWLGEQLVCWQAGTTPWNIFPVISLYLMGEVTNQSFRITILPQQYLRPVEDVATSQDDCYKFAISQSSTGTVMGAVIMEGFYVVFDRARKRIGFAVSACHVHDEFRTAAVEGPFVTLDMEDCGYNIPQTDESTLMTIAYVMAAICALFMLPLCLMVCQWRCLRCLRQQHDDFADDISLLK

percent reduction of co-immunoprecipitated Bin1 against Bin1-WT: 65%
Substance: Bin1-KR (siRNA-resistant neuronal Bin1-MYC with the LOAD mutation K358R, rs138047593) (from UniProt O08539-1 1-588) (natural protein)

Source: PMC8413894
